Patent publication US20220153792A1 (INSTITUTE FOR RESEARCH IN BIOMEDICINE, published 2022)

T1: histidine tagged HMGB1 (High-Mobility-Group-Protein 1) (Homo sapiens (Human), UniProt P09429 1-215, limits assumed, labeled with the his-tag specific NT-647 dye)
T1 construct: also called high-mobility protein box 1; not shown: histidine tag
T1 sequence: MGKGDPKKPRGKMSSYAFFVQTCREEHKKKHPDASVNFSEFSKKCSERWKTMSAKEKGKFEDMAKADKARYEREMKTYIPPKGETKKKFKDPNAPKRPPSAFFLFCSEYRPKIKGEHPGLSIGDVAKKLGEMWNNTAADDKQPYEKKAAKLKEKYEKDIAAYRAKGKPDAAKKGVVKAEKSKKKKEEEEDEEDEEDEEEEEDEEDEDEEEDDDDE


Target: T1, histidine tagged HMGB1 …
Test: MST, NT-647-labelled His-tagged HMGB1, peptide titrated

Kd [µM] | Binder | binding result
– | GYHYE (First five residues of HBP08 (GYHYE)) [Pentapept-1] | no binding (tested: highest peptide concentration 500 µM)
200 | ERWIH (Last five residues of HBP08 (ERWIH)) [Pentapept-2] | –
